The values that follow are results of earlier work, collected in article PMC4089558.

The target in the data set is CFP10 (Mycobacterium tuberculosis) (UniProt P9WNK5).
Sequence of CFP10 (Mycobacterium tuberculosis) (P9WNK5 2-100): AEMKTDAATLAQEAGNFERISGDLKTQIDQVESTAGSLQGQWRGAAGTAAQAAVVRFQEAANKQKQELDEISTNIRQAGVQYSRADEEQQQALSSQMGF

Sequence of ESAT-6 (P9WNK7 2-95): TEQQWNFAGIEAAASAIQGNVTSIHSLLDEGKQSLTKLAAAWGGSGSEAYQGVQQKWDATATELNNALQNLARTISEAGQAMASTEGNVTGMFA

As to ESAT-6 (from UniProt P9WNK7), the Kd was 11 nM.
